Results as given in patent US5985836A, “Alpha-1 proteinase inhibitor binding peptides” (Bayer Corporation, priority 1998, dated 1999).

Legend:
[1] = target: T1, A1PI (Homo sapiens, UniProt P01009); test: Purification of A1PI from Effluent II+III on peptide column, A1PI mass balance; format: binding; details: 1 ml Eff. II+III, 4° C.; for Mass A1PI per Eluate Fraction, 1M NaCl / Mass A1PI per Eluate Fraction, 2% Acetic Acid / Mass A1PI per Eluate Fraction, Flowthrough: * Below detection limit; for Percent Eluted by Fraction, 1M NaCl / Percent Eluted by Fraction, 2% Acetic Acid / Percent Eluted by Fraction, Flowthrough: A1PI
T1 construct: Human plasma is currently the only approved source of therapeutic AlPI
Procedure: Sequences 1-11 and 15 were assayed with Effluent II+III (Eff. II+III). Eff. II+III is a process intermediate in the Cohn plasma fractionation process. The feed stream contains 20% (by volume) ethanol, 20-25 mg/ml hSA and approximately 1 mg/ml AlPI. The stream also contains other proteins including anti-thrombin III (AT3), immunoglobin G (IgG), immunoglobin A (IgA), apolipoprotein alpha-1 (Apo A-1), transferrin (Trf), haptoglobin (Hpt), and alpha-1 acid glycoprotein (AAG) at concentrations ranging from 0.1-1 mg/ml.
The columns were assayed using the same technique as the hSA+AlPI experiments, allowing for a 10 minute residence time followed by a constant flow rate of 865 μl/min with step elutions of 1M NaCl, 3M NaCl, and 2% acetic acid. All experiments were conducted at 4° C. The mass balances for the injection of 1 ml Eff. […] The AlPI was enriched from 3% of the total protein in the feed to upwards of 50% in the acid eluate.

[2] = target: T1, A1PI; test: A1PI binding on peptide-resin column, injection of 1 mg A1PI in equilibration buffer; details: 1 mg A1PI
Procedure: Confirmatory binding assays were performed in a column chromatographic format on a microbore HPLC using individual peptide sequences synthesized directly onto the Toyopearl 650 M Chelate resin which had been modified with Totda followed by an alanine residue (A-Totda-Toyopearl), at a final substitution density of 0.1 mmole/g resin. The resin was packed into 0.4×5 cm columns (Thomson, Springfield, Va.) and tested on the Michrom HPLC system (Michrom BioResources, Auburn, Calif.). The elution program for all trials utilized the following method. The column was pre-equilibrated with equilibration buffer (as above). 1 ml of sample was injected and allowed sufficient time to flowthrough the column using equilibration buffer. The column was then washed with step elutions of 1M NaCl and 3M NaCl in equilibration buffer. The column was exposed to equilibration buffer with 0.1M NaCl. Any remaining protein was eluted with elution buffer (2% by volume glacial acetic acid in water).
A Gilson FC204 fraction collector at the HPLC outlet collected individual eluates for further analysis. Fractions collected from the 2% acetic acid eluates were neutralized with 2M Tris, pH 10.5 to bring the pH to neutrality. The protein samples were reconstituted in equilibration buffer unless otherwise stated. The samples were analyzed by the integration of the absorbance at 280 nm or by immunonephelometry. The specific method of determination is presented for each figure.
Tables 2 and 3 present the elution profiles for 19 sequences based on the injection of 1 mg AlPI in equilibration buffer at 4° C. and 20° C., respectively. The columns were run at a constant flow rate of865 μl/min (413 cm/hr) or 523 μl/min (250 cm/hr). No dependence of the elution profile with flow rate was found. The Percent AlPI Eluted by Fraction represents the amount eluted in the flowthrough, 1M NaCl wash, and 2% acetic acid fractions relative to the total AlPI eluted. The percentages are based on either the integration of the peak areas at […]

T1 sequence (P01009 25-418): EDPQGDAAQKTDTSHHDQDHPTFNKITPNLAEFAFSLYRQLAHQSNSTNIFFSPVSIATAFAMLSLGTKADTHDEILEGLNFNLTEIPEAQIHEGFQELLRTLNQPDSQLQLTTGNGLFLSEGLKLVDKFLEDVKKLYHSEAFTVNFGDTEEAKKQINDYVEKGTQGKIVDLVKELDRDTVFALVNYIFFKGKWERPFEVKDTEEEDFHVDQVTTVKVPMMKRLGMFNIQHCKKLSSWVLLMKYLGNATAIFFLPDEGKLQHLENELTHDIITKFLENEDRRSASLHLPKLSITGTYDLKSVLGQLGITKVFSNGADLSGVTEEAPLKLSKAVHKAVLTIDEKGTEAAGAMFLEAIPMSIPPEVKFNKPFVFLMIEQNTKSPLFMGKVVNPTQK

| Substance | Mass A1PI per Eluate Fraction, 1M NaCl ([1]; Table 13) [mg] | Mass A1PI per Eluate Fraction, 2% Acetic Acid ([1]; Table 13) [mg] | Mass A1PI per Eluate Fraction, Flowthrough ([1]; Table 13) [mg] | Percent Eluted by Fraction, 1M NaCl ([1]; Table 13) [%] | Percent Eluted by Fraction, 2% Acetic Acid ([1]; Table 13) [%] | Percent Eluted by Fraction, Flowthrough ([1]; Table 13) [%] | % of Total A1PI Eluted by Fraction (Based on Absorbance at 280 nm), 1M NaCl ([2]; VIFLVR point mutations, 4° C.) [%] | % of Total A1PI Eluted by Fraction (Based on Absorbance at 280 nm), 2% Acetic Acid ([2]; VIFLVR point mutations, 4° C.) [%] | % of Total A1PI Eluted by Fraction (Based on Absorbance at 280 nm), Flowthrough ([2]; VIFLVR point mutations, 4° C.) [%] | % of Total A1PI Eluted by Fraction (Based on Absorbance at 280 nm), 1M NaCl ([2]; VIFLVR point mutations, 20° C.) [%] | % of Total A1PI Eluted by Fraction (Based on Absorbance at 280 nm), 2% Acetic Acid ([2]; VIFLVR point mutations, 20° C.) [%] | % of Total A1PI Eluted by Fraction (Based on Absorbance at 280 nm), Flowthrough ([2]; VIFLVR point mutations, 20° C.) [%] | Mass A1PI per Eluate Fraction, 2% Acetic Acid ([1]; Table 11) [mg] | Mass A1PI per Eluate Fraction, Flowthrough ([1]; Table 11) [mg] | Percent Eluted by Fraction, 1M NaCl ([1]; Table 11) [%] | Percent Eluted by Fraction, 2% Acetic Acid ([1]; Table 11) [%] | Percent Eluted by Fraction, Flowthrough ([1]; Table 11) [%] | % of Total A1PI Eluted by Fraction (Based on Absorbance at 280 nm), 1M NaCl ([2]; Trp position mutations, 4° C.) [%] | % of Total A1PI Eluted by Fraction (Based on Absorbance at 280 nm), 2% Acetic Acid ([2]; Trp position mutations, 4° C.) [%] | % of Total A1PI Eluted by Fraction (Based on Absorbance at 280 nm), Flowthrough ([2]; Trp position mutations, 4° C.) [%] | other results |
| --- | --- | --- | --- | --- | --- | --- | --- | --- | --- | --- | --- | --- | --- | --- | --- | --- | --- | --- | --- | --- | --- |
| K I F L V R: point mutation of VIFLVR, position 1 (KIFLVR) | 0.03 | 0.51 | 0.32 | 3 | 59 | 38 | 3 | 97 | 0 | 0 | 100 | 0 | – | – | – | – | – | – | – | – | – |
| V I S L V R: VIWLVR with Trp at position 3 replaced by Ser (VISLVR) | – | – | – | – | – | – | – | – | – | – | – | – | 0.26 | 0.14 | 26 | 49 | 25 | 100 | 0 | 0 | Mass A1PI per Eluate Fraction, 1M NaCl ([1]; Table 11): 0.14 mg; % of Total A1PI Eluted by Fraction (Based on Absorbance at 280 nm), 1M NaCl ([2]; Trp position mutations, 20° C.): 75%; % of Total A1PI Eluted by Fraction (Based on Absorbance at 280 nm), 2% Acetic Acid ([2]; Trp position mutations, 20° C.): 14%; % of Total A1PI Eluted by Fraction (Based on Absorbance at 280 nm), Flowthrough ([2]; Trp position mutations, 20° C.): 11% |
| V I V L V R: VIWLVR with Trp at position 3 replaced by Val (VIVLVR) | – | – | – | – | – | – | – | – | – | – | – | – | 0.50 | 0.31 | 4 | 59 | 37 | 5 | 95 | 0 | Mass A1PI per Eluate Fraction, 1M NaCl ([1]; Table 11): 0.04 mg |
| V I N L V R: VIWLVR with Trp at position 3 replaced by Asn (VINLVR) | – | – | – | – | – | – | – | – | – | – | – | – | 0.53 | 0.44 | 0 | 55 | 45 | 8 | 92 | 0 | % of Total A1PI Eluted by Fraction (Based on Absorbance at 280 nm), 1M NaCl ([2]; Trp position mutations, 20° C.): 7%; % of Total A1PI Eluted by Fraction (Based on Absorbance at 280 nm), 2% Acetic Acid ([2]; Trp position mutations, 20° C.): 93%; % of Total A1PI Eluted by Fraction (Based on Absorbance at 280 nm), Flowthrough ([2]; Trp position mutations, 20° C.): 0% |
| V I A L V R: VIWLVR with Trp at position 3 replaced by Ala (VIALVR) | – | – | – | – | – | – | – | – | – | – | – | – | 0.35 | 0.18 | 8 | 61 | 31 | 92 | 8 | 0 | Mass A1PI per Eluate Fraction, 1M NaCl ([1]; Table 11): 0.05 mg; % of Total A1PI Eluted by Fraction (Based on Absorbance at 280 nm), 1M NaCl ([2]; Trp position mutations, 20° C.): 36%; % of Total A1PI Eluted by Fraction (Based on Absorbance at 280 nm), 2% Acetic Acid ([2]; Trp position mutations, 20° C.): 53%; % of Total A1PI Eluted by Fraction (Based on Absorbance at 280 nm), Flowthrough ([2]; Trp position mutations, 20° C.): 10% |
| A I F L V R: point mutation of VIFLVR, position 1 (AIFLVR) | 0.07 | 0.59 | 0.33 | 7 | 60 | 33 | 4 | 96 | 0 | 3 | 92 | 5 | – | – | – | – | – | – | – | – | – |
| V I L L V R: VIWLVR with Trp at position 3 replaced by Leu (VILLVR) | – | – | – | – | – | – | – | – | – | – | – | – | 0.54 | 0.42 | 7 | 52 | 41 | 7 | 93 | 0 | Mass A1PI per Eluate Fraction, 1M NaCl ([1]; Table 11): 0.07 mg |
| S I F L V R: point mutation of VIFLVR, position 1 (SIFLVR) | 0.04 | 0.52 | 0.61 | 3 | 44 | 52 | 7 | 93 | 0 | 6 | 81 | 13 | – | – | – | – | – | – | – | – | – |
| H I F L V R: point mutation of VIFLVR, position 1 (HIFLVR) | 0.08 | 0.54 | 0.16 | 10 | 69 | 21 | 3 | 97 | 0 | 7 | 93 | 0 | – | – | – | – | – | – | – | – | – |
| R I F L V R: point mutation of VIFLVR, position 1 (RIFLVR) | – | 0.50 | 0.24 | 0 | 67 | 33 | 0 | 100 | 0 | – | – | – | – | – | – | – | – | – | – | – | – |
